The subject of data set [1] is P. aeruginosa biofilm aggregates. Description: Biofilm aggregates embedded in agar blocks (anoxic fitness). It is filed as cell-based. The settings on record: 22 hours growth then 5 hour treatment, 2 μg mL^−1; ~300 μm and deeper below agar surface. The method, then:
Biofilm aggregate experiments. To test the effect of oxygen limitation in the presence of PodA30-162, biofilm aggregates were grown embedded in 0.5% noble agar blocks containing succinate minimal medium. Cultures were grown overnight to stationary phase in LB, washed once with succinate minimal medium, and resuspended to OD600 1.0. Samples were diluted 1:100 in agar at 44° C. and 175 μL was transferred to Nunc Lab-Tek chambered coverglass slides (8-well, 0.7 cm^2 area, supplier #155409). […] SYTO-9 from the LIVE/DEAD stain kit was used in place of DAPI to minimize background fluorescence. […] Biomass was quantified in ImageJ software (60) by identifying the Z-slice with the highest average fluorescent intensity (generally […] the agar surface), and setting the pixel threshold using the default ImageJ thresholding parameters at the Z-slice equivalent to the 100 μm depth. The number of particles in each slice of the Z-stack was determined using this threshold value and counting particles >10 μm^2 in area. […] Particle numbers for each slice were averaged between independent experiments and plotted against depth to quantify biofilm aggregates. […]
Oxygen diffusion modeling. […] Given these values, average cell number per mL was estimated by dividing the volume of total detected biofilm aggregates by the average volume of a P. aeruginosa cell (62) yielding a cell density estimate of 5×10^8. […]

Data set [2] in a line: PYO demethylation in the presence of DNA. Conditions: gDNA pellet, 2 μg mL^−1, 3 hours. It is filed as biochemical. The method, then:
Biofilm experiments. For all experiments involving inactivated PodA, either the E154A mutant or PodA30-162 that was subjected to a 1 hour treatment at 98° C. was used. To test the ability of PodA30-162 to degrade PYO in the presence of DNA, genomic DNA (gDNA) from P. aeruginosa PA14 was used in modified versions of previously described assays (59). For experiments using DNA pellets, 0.5 mg of gDNA was pelleted in the presence of 300 mM sodium acetate, pH 5.2 and 70% ethanol. Pellets were washed with 70% ethanol and dried. 200 μL of 800 μM PYO was added to the gDNA pellet without mixing and left to sit at room temperature for 6 hours to allow for diffusion of PYO into the gDNA pellet. The pellet was washed once with 70% EtOH, and submerged in a solution containing 10 mM Tris, pH 7.0 and 40% isopropanol. The pellet remained blue, consistent with an association of PYO with DNA. PodA30-162 was added to the isopropanol solution to a final concentration of 2 μg mL^−1 and left to sit for 3 hours to allow for the reaction to proceed. Tubes were imaged before and after PodA30-162 treatment. […] The PYO gDNA mixture was amended with 1 μg mL^−1 PodA30-162 and loss of PYO was monitored on a BioTek Synergy 4 microplate reader (BioTek) plate reader at 690 nm. Standards were included to quantify PYO loss over time. […]

Entries after “also recorded” stand apart in the source; their conditions may differ.

B1: PodA30-162: truncated pyocyanin demethylase encoded by MFORT_14352 of Mycobacterium fortuitum lacking N-terminal helix, SEQ ID NO: 2 (protein, listed as Mycobacterium fortuitum)
chain: MDGRGGRSTTEPVTMTLDVKNDQVAKHDFGKPGMDVGDMDIFSDILSVDGKQVGYDGGACFFTNVTPDNPMTYCELTIHLDAGEIFARSLTPHTLAPFTMAITGGTGEYANSKGELTVSGVATPDEKYELKLTKAENLYFQ
As to B1, the “detectable biofilm aggregates at anoxic depths” value in data set [1] is listed as “sharper decline in detectable aggregates; also recorded: apparent biomass defect specifically at anoxic depths”. Also, the “demethylation of PYO associated with precipitated DNA” value in data set [2] is reported as “not protected”.

The values above are taken from patent US12241094B2, “Phenazine degrading agents and related compositions, methods and systems for interfering with viability of bacteria” (priority 2016, dated 2025).
